Patent publication US20100260668A1 (published 2010)

T1: PlGF (UniProt P49763-2 21-149, limits assumed)
T1 construct: bought antigen coated on the ELISA plate; also called Placental GF
T1 sequence (looked up): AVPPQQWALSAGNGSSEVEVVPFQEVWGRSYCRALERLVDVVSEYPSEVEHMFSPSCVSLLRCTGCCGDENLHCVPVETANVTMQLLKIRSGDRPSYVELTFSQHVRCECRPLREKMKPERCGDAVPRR


Key:
VEGF 1-165 aa = target: T2, VEGF 1-165 aa (UniProt P15692 27-191); assay: direct bind ELISA (C-term VD)
T2 construct: Bought antigen coated on the ELISA plate
Experimental: (§1) Enzyme Linked Immunosorbent Assays to screen for antibodies that bind a desired target antigen were performed as follows. […] Plates were washed four times with PBS containing 0.02% Tween 20. Plates were blocked by the addition of 300 μL/well blocking solution (non-fat dry milk powder, various retail suppliers, diluted to 2% in PBS) for ½ hour at room temperature. Plates were washed four times after blocking with PBS containing 0.02% Tween 20.
Alternatively, one hundred microliters per well of 10 μg/ml of Histidine (His) tagged desired target antigen (R&D Systems, Minneapolis, Minn.) was added to ELISA plates coated with monoclonal mouse anti-polyHistidine antibody as described above and incubated for 1 hour at room temperature. Wells were washed four times with PBS containing 0.02% Tween 20.
(§2) Plates were washed 4 times with PBS containing 0.02% Tween 20.

HGF-His tag = target: T3, HGF-His tag (UniProt P14210 32-728); assay: direct bind ELISA (N-term VD);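 also: ELISA screen of antibodies for binding to plate-immobilized target antigen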
T3 construct: Bought antigen coated on the ELISA plate; not shown: His tag

PlGF [1] = target: T1, PlGF; assay: direct bind ELISA, N-terminal VD
PlGF [2] = target: T1, PlGF; assay: direct bind ELISA, C-terminal VD
Experimental: as §1, §2

T2 sequence (P15692 other isoform, or with tags, fused parts or gaps limits assumed): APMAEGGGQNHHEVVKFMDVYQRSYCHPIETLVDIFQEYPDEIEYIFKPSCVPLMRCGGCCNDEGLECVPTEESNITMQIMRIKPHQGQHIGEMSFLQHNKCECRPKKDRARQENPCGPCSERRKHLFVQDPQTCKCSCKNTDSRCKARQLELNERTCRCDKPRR
T3 sequence (P14210 32-728 limits assumed): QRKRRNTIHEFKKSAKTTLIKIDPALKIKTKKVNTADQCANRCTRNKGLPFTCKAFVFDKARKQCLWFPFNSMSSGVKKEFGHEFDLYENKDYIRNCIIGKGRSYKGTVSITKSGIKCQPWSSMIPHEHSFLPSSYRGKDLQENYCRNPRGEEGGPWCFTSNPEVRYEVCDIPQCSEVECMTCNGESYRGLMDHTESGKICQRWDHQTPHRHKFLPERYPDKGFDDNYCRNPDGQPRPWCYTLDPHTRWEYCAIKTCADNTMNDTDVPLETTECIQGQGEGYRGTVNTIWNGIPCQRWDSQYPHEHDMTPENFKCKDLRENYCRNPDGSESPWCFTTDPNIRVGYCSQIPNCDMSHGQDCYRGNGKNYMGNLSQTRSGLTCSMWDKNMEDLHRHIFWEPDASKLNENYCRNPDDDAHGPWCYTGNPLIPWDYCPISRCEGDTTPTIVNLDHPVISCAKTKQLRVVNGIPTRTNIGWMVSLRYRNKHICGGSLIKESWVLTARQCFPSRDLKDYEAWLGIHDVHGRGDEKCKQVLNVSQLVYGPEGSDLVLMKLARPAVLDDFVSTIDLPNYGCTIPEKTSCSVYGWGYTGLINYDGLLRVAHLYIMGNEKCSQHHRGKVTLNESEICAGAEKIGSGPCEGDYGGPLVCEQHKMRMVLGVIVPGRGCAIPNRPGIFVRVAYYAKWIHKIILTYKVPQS

Binder	EC50 (VEGF 1-165 aa)	EC50 (HGF-His tag)	EC50 (PlGF [1])	EC50 (PlGF [2])
DVD673 (bispecific antibody, human IgG1, kappa, DVD-Ig; HC linker long, LC linker short; vectors V1/V2) heavy: not shown light: DIQMTQSPSSLSASVGDRVTITCKASENVVSYVSWYQQKPGKAPKLLIYGASNRNTGVPSRFSGSGSGTDFTLTISSLQPEDFATYYCGQSYNYPYTFGQGTKLEIKRTVAAPDIQMTQSPSSLSASVGDRVTITCRASQDVSTAVAWYQQKPGKAPKLLIYSASFLYSGVPSRFSGSGSGTDFTLTISSLQPEDFATYYCQQSYTTPPTFGQGTKVEIKRTVAAPSVFIFPPSDEQLKSGTASVVCLLNNFYPREAKVQWKVDNALQSGNSQESVTEQDSKDSTYSLSSTLTLSKADYEKHKVYACEVTHQGLSSPVTKSFNRGEC	65.3 nM	0.4 nM		
DVD675 (bispecific antibody, human IgG1, kappa, DVD-Ig; N-term VD AB079 (HGF), C-term VD AB071 (VEGF); HC linker long, LC linker short; vectors V1/V2) heavy: not shown light: DIQMTQSPSSLSASVGDRVTITCKASENVVSYVSWYQQKPGKAPKLLIYGASNRNTGVPSRFSGSGSGTDFTLTISSLQPEDFATYYCGQSYNYPYTFGQGTKLEIKRTVAAPDIQMTQSPSSLSASVGDRVTITCRASQVIRRSLAWYQQKPGKAPKLLIYAASNLASGVPSRFSGSGSGTDFTLTISSLQPEDFATYYCQQSNTSPLTFGQGTKVEIKRTVAAPSVFIFPPSDEQLKSGTASVVCLLNNFYPREAKVQWKVDNALQSGNSQESVTEQDSKDSTYSLSSTLTLSKADYEKHKVYACEVTHQGLSSPVTKSFNRGEC	5770 nM	0.48 nM		
DVD679 (bispecific antibody, human IgG1, kappa, DVD-Ig; HC linker short, LC linker long; vectors V1/V2) heavy: not shown light: DIQMTQSPSSLSASVGDRVTITCKASENVVSYVSWYQQKPGKAPKLLIYGASNRNTGVPSRFSGSGSGTDFTLTISSLQPEDFATYYCGQSYNYPYTFGQGTKLEIKRTVAAPSVFIFPPDIQMTQSPSSLSASVGDRVTITCRASQDVSTAVAWYQQKPGKAPKLLIYSASFLYSGVPSRFSGSGSGTDFTLTISSLQPEDFATYYCQQSYTTPPTFGQGTKVEIKRTVAAPSVFIFPPSDEQLKSGTASVVCLLNNFYPREAKVQWKVDNALQSGNSQESVTEQDSKDSTYSLSSTLTLSKADYEKHKVYACEVTHQGLSSPVTKSFNRGEC	92.4 nM	0.32 nM		
DVD681 (bispecific antibody, human IgG1, kappa, DVD-Ig; N-term VD AB079 (HGF), C-term VD AB071 (VEGF); HC linker short, LC linker long; vectors V1/V2) heavy: not shown light: DIQMTQSPSSLSASVGDRVTITCKASENVVSYVSWYQQKPGKAPKLLIYGASNRNTGVPSRFSGSGSGTDFTLTISSLQPEDFATYYCGQSYNYPYTFGQGTKLEIKRTVAAPSVFIFPPDIQMTQSPSSLSASVGDRVTITCRASQVIRRSLAWYQQKPGKAPKLLIYAASNLASGVPSRFSGSGSGTDFTLTISSLQPEDFATYYCQQSNTSPLTFGQGTKVEIKRTVAAPSVFIFPPSDEQLKSGTASVVCLLNNFYPREAKVQWKVDNALQSGNSQESVTEQDSKDSTYSLSSTLTLSKADYEKHKVYACEVTHQGLSSPVTKSFNRGEC	2160 nM	0.27 nM		
DVD709 (bispecific antibody, human IgG1, kappa, DVD-Ig; HC linker short, LC linker short; vectors V1/V2) heavy: not shown light: DIQMTQSPSSVSASVGDRVTITCRASQGISSWLAWYQQKPGKAPNLLIYEASSLQSGVPSRFGGSGSGTDFTLTISSLQPEDFATYYCQQANGFPWTFGQGTKVEIKRTVAAPDIQMTQSPSSLSASVGDRVTITCRASQDVSTAVAWYQQKPGKAPKLLIYSASFLYSGVPSRFSGSGSGTDFTLTISSLQPEDFATYYCQQSYTTPPTFGQGTKVEIKRTVAAPSVFIFPPSDEQLKSGTASVVCLLNNFYPREAKVQWKVDNALQSGNSQESVTEQDSKDSTYSLSSTLTLSKADYEKHKVYACEVTHQGLSSPVTKSFNRGEC	1370 nM	0.14 nM		
DVD711 (bispecific antibody, human IgG1, kappa, DVD-Ig; N-term VD AB012 (HGF), C-term VD AB071 (VEGF); HC linker short, LC linker short; vectors V1/V2) heavy: not shown light: DIQMTQSPSSVSASVGDRVTITCRASQGISSWLAWYQQKPGKAPNLLIYEASSLQSGVPSRFGGSGSGTDFTLTISSLQPEDFATYYCQQANGFPWTFGQGTKVEIKRTVAAPDIQMTQSPSSLSASVGDRVTITCRASQVIRRSLAWYQQKPGKAPKLLIYAASNLASGVPSRFSGSGSGTDFTLTISSLQPEDFATYYCQQSNTSPLTFGQGTKVEIKRTVAAPSVFIFPPSDEQLKSGTASVVCLLNNFYPREAKVQWKVDNALQSGNSQESVTEQDSKDSTYSLSSTLTLSKADYEKHKVYACEVTHQGLSSPVTKSFNRGEC	166 nM	1.32 nM		
DVD545 (bispecific antibody, human IgG1, kappa, outer AB074 (PlGF), inner AB071 (VEGF); HC linker short, LC linker short; also called DVD-Ig DVD545) heavy: not shown light: AIQMTQSSSSFSVSLGDRVTITCKASEDIYNRFAWYQQKPGNAPRLLISGAASLEAGVPSRFSGSGSGQDYTLSITSLQTEDVATYYCQQYWSTPWTFGGGTKLEIKRTVAAPDIQMTQSPSSLSASVGDRVTITCRASQVIRRSLAWYQQKPGKAPKLLIYAASNLASGVPSRFSGSGSGTDFTLTISSLQPEDFATYYCQQSNTSPLTFGQGTKVEIKRTVAAPSVFIFPPSDEQLKSGTASVVCLLNNFYPREAKVQWKVDNALQSGNSQESVTEQDSKDSTYSLSSTLTLSKADYEKHKVYACEVTHQGLSSPVTKSFNRGEC			98.8 nM	
DVD550 (bispecific antibody, human IgG1, kappa, HC linker long, LC linker long; also called DVD-Ig DVD550) heavy: not shown light: DIQMTQSPSSLSASVGDRVTITCSASQDISNYLNWYQQKPGKAPKVLIYFTSSLHSGVPSRFSGSGSGTDFTLTISSLQPEDFATYYCQQYSTVPWTFGQGTKVEIKRTVAAPSVFIFPPAIQMTQSSSSFSVSLGDRVTITCKASEDIYNRFAWYQQKPGNAPRLLISGAASLEAGVPSRFSGSGSGQDYTLSITSLQTEDVATYYCQQYWSTPWTFGGGTKLEIKRTVAAPSVFIFPPSDEQLKSGTASVVCLLNNFYPREAKVQWKVDNALQSGNSQESVTEQDSKDSTYSLSSTLTLSKADYEKHKVYACEVTHQGLSSPVTKSFNRGEC				146 nM
DVD553 (bispecific antibody, human IgG1, kappa, outer AB074 (PlGF), inner AB071 (VEGF); HC linker long, LC linker long; also called DVD-Ig DVD553) heavy: not shown light: AIQMTQSSSSFSVSLGDRVTITCKASEDIYNRFAWYQQKPGNAPRLLISGAASLEAGVPSRFSGSGSGQDYTLSITSLQTEDVATYYCQQYWSTPWTFGGGTKLEIKRTVAAPSVFIFPPDIQMTQSPSSLSASVGDRVTITCRASQVIRRSLAWYQQKPGKAPKLLIYAASNLASGVPSRFSGSGSGTDFTLTISSLQPEDFATYYCQQSNTSPLTFGQGTKVEIKRTVAAPSVFIFPPSDEQLKSGTASVVCLLNNFYPREAKVQWKVDNALQSGNSQESVTEQDSKDSTYSLSSTLTLSKADYEKHKVYACEVTHQGLSSPVTKSFNRGEC			66300 nM	
DVD567 (bispecific antibody, human IgG1, kappa, HC linker short, LC linker long; also called DVD-Ig DVD567) heavy: not shown light: AIQMTQSSSSFSVSLGDRVTITCKASEDIYNRFAWYQQKPGNAPRLLISGAASLEAGVPSRFSGSGSGQDYTLSITSLQTEDVATYYCQQYWSTPWTFGGGTKLEIKRTVAAPSVFIFPPDIQMTQSPSSLSASVGDRVTITCRASQDVSTAVAWYQQKPGKAPKLLIYSASFLYSGVPSRFSGSGSGTDFTLTISSLQPEDFATYYCQQSYTTPPTFGQGTKVEIKRTVAAPSVFIFPPSDEQLKSGTASVVCLLNNFYPREAKVQWKVDNALQSGNSQESVTEQDSKDSTYSLSSTLTLSKADYEKHKVYACEVTHQGLSSPVTKSFNRGEC			340 nM	
DVD569 (bispecific antibody, human IgG1, kappa, outer AB074 (PlGF), inner AB071 (VEGF); HC linker short, LC linker long; also called DVD-Ig DVD569) heavy: not shown light: AIQMTQSSSSFSVSLGDRVTITCKASEDIYNRFAWYQQKPGNAPRLLISGAASLEAGVPSRFSGSGSGQDYTLSITSLQTEDVATYYCQQYWSTPWTFGGGTKLEIKRTVAAPSVFIFPPDIQMTQSPSSLSASVGDRVTITCRASQVIRRSLAWYQQKPGKAPKLLIYAASNLASGVPSRFSGSGSGTDFTLTISSLQPEDFATYYCQQSNTSPLTFGQGTKVEIKRTVAAPSVFIFPPSDEQLKSGTASVVCLLNNFYPREAKVQWKVDNALQSGNSQESVTEQDSKDSTYSLSSTLTLSKADYEKHKVYACEVTHQGLSSPVTKSFNRGEC			88.5 nM	
